Measurements reported in publication PMC7144912 (Nucleic Acids Research, 2020).
Read-outs that look alike come from different tables or passages of the source.

Legend:
[1] = target: T1, DNMT3B catalytic domain (3B-CD);DNMT3L catalytic-like domain (3L-CD) (Homo sapiens;Homo sapiens, UniProt Q9UBC3;Q9UJW3 571-853;178-379, |); assay: X-ray crystallography
[2] = target: the molecule itself; assay: crystal structure
[3] = target: T1, DNMT3B catalytic domain (3B-CD);DNMT3L …; assay: X-ray crystallography; remark: listed apart in the source

T1 sequence (Q9UJW3 178-379, one chain of several): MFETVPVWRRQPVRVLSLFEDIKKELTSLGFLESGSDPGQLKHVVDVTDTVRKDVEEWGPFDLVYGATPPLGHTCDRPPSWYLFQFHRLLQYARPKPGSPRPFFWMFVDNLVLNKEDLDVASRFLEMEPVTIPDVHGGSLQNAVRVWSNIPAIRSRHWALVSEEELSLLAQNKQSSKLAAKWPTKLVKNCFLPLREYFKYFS

B1: CpGpT crystallization duplex (dsDNA)
DNA 1: GCATGCGTTCTAATTAGAACGCATG
DNA 2: GCATGCGTTCTAATTAGAACGCATG
B1: binds [1].

B2: catalytic domain of human DNMT3B (3B-CD, residues 571–853) (domain or fragment, UniProt Q9UBC3 571-853, looked up)
chain: RRRPIRVLSLFDGIATGYLVLKELGIKVGKYVASEVCEESIAVGTVKHEGNIKYVNDVRNITKKNIEEWGPFDLVIGGSPCNDLSNVNPARKGLYEGTGRLFFEFYHLLNYSRPKEGDDRPFFWMFENVVAMKVGDKRDISRFLECNPVMIDAIKVSAAHRARYFWGNLPGMNRPVIASKNDKLELQDCLEYNRIAKLKKVQTITTKSNSIKQGKNQLFPVVMNGKEDVLWCTELERIFGFPVHYTDVSNMGRGARQKLLGRSWSVPVIRHLFAPLKDYFACE
B2: binds [2].

B3: CpGpG crystallization duplex (dsDNA)
DNA 1: GAATTCGGAAAAATTTTTCCGAATT
DNA 2: GAATTCGGAAAAATTTTTCCGAATT
B3: binds [3].
